In patent publication US11312769B2, “Anti-TMEFF1 antibodies and antibody drug conjugates” (Bluefin BioMedicine, Inc., priority 2017, dated 2022):
Substitutions are numbered along the chain they refer to. Names and notes keep the numbering of the source.

T1: recombinant TMEFF1 (Homo sapiens, UniProt Q8IYR6)
T1 construct: generated to secrete the ECD from CHO cells to assist with biophysical evaluations; His tag (C); made in house; host or cells: CHO (ExpiCHO)
T1 sequence (Q8IYR6 40-330 limits assumed): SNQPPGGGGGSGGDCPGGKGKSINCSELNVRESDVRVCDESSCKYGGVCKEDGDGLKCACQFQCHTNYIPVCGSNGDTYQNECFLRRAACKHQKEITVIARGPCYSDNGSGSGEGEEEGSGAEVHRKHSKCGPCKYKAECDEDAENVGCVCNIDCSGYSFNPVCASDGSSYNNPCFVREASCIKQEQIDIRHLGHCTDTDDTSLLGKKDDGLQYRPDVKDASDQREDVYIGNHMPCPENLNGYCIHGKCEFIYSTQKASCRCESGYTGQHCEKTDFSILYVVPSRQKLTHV

B1: 29C4: human anti-TMEFF1 IgG1 antibody; VH SEQ ID NO: 118, VL SEQ ID NO: 122 (antibody, V domains shown)
VH: QVQLVESGGGVVQPGRSLRLSCAASGFTFSNYGMHWVRQAPGKGLEWVAVIWYDGGPKFYADSVKGRFTISRDNSKNTLYLQMNSLRAEDTAVYYCARSYCGGDCYPFDYWGQGDLVTVSS
VL: DIQMTQSPSSLSASVGDRVTITCRASQGISNYLAWYQQKPGKVPKLLIYAASTLQSGVPSRFSGSGSGTDFTLTISSLQPEDVATYYCQKYYSAPWTFGQGTKVEIK
B2: M17: human anti-TMEFF1 IgG1 antibody; VH SEQ ID NO: 79, VL SEQ ID NO: 82 (antibody, V domains shown)
VH: QVQLVESGGGVVQPGRSLRLSCAASGFTFRSYGMHWVRQAPGKGLEWVALIWYDGGDQYYADSVKGRFTISRDSSKSTLYLQMNSLRAEDTAVYYCARAQCGDDCYPFDYWGQGTLVTVSS
VL: B1 VL with S30Y, Y92N, A94D, V104L
B3: 37G7: human anti-TMEFF1 IgG1 antibody; VH SEQ ID NO: 85, VL SEQ ID NO: 88 (antibody, V domains shown)
VH: B1 VH with S30T, N31S, I51V, D54E, G56S, P57S, A61V, T69I, S99A, D115T
VL: B1 VL with Y92N
B4: 35B1: human anti-TMEFF1 IgG1 antibody; VH SEQ ID NO: 66, VL SEQ ID NO: 70 (antibody, V domains shown)
VH: QVQLVESGGGVVQPGRSLRLSCAASGFTFTTYGMHWVRQAPGKGLEWVAVVWFEGNSKFYIDSVKGRFIISRDNSKNTLFLQMNSLRAEDTAVYYCARANCGADCYPFDYWGQGTLVTVSS
VL: B1 VL with T72S, Q79R, Y92N
B5: M35: human anti-TMEFF1 IgG1 antibody; VH SEQ ID NO: 134, VL SEQ ID NO: 138 (antibody, V domains shown)
VH: QVQLQESGPGLVKPSGTLSLTCAVSGGSISSSNWWSWVRQPPGKGLEWIGEIYHSGSTNYNPSLKSRVTISVDKSKNQFSLKLSSVTAADTAVYYCATMVRGRYYYYGMDVWGQGTTVTVSS
VL: DIVMTQSPLSLPVTPGEPASISCRSSQSLLHSDGYNFLDWYLQKPGQSPQFLIYLGSNRASGVPDRFSGVGSGTDFTLQISRVEAEDFGVYYCMQALQAPWTFGQGTKLEIK
B6: M1F1: human anti-TMEFF1 IgG1 antibody; VH SEQ ID NO: 9, VL SEQ ID NO: 13 (antibody, V domains shown)
VH: QVQLQESGPGLVKPSETLSLTCAVSGYSISSGYFWGWIRQPPGKKLEWIGSIYHSGSTYYNPSLKSRVTMSVDTSKNQFSLKLSSVTAADTAVYYCAREGDCSGGICYWYFDLWGRGTLVTVSS
VL: EIVMTQSPATLSVSPGERATLSCRASQSVSSNLAWYQQKPGQAPRLLIYGASTRATGIPARFSGSGSGTEVTLTISSLQSEDFAVYYCQQYNKWPLTFGGGTKVEIK
B7: M1H1: human anti-TMEFF1 IgG1 antibody; VH SEQ ID NO: 9, VL SEQ ID NO: 78 (antibody, V domains shown)
VH: B6 VH
VL: B1 VL with V83F, T85V, K90Q, Y92N, S93K, A94W, W96L, Q100G, V104L
B8: M33F: human anti-TMEFF1 IgG1 antibody; VH SEQ ID NO: 9, VL SEQ ID NO: 141 (antibody, V domains shown)
VH: B6 VH
VL: DIQMTQSPSSLSASVGDRVTITCRASQGISNYLAWYQQKPGKVPKLLIYAASTLQSGVPSRFSGSGSGTEVTLTISSLQSEDFAVYYCQQYNKWPLTFGGGTKLEIK
B9: 10C10: human anti-TMEFF1 IgG1 antibody; VH SEQ ID NO: 96, VL SEQ ID NO: 93 (antibody, V domains shown)
VH: QVQLVESGGGVVQPGRSLRLSCATSGFTFSIYGMHWVRQAPGKGLEWVAIIWYDGNKKYYADSVKGRFTISRDNSKNTLYLQMNSLRAEDTAVYYCARDPYTSSLDYWGQGTLVTVSS
VL: B8 VL with M4L, S10F, N31S, V43A, V71F, S80P, V85T, Y91L, K93S, W94Y
B10: 18C2: human anti-TMEFF1 IgG1 antibody; VH SEQ ID NO: 89, VL SEQ ID NO: 93 (antibody, V domains shown)
VH: B9 VH with T24A, K43M, W52R, N56S, K57N, Q82R, Y101F
VL: B8 VL with M4L, S10F, N31S, V43A, V71F, S80P, V85T, Y91L, K93S, W94Y
B11: 19D9: human anti-TMEFF1 IgG1 antibody; VH SEQ ID NO: 99, VL SEQ ID NO: 101 (antibody, V domains shown)
VH: B9 VH with T24A, I50N, N56S, A92S
VL: DIQLTQSPSFLSASVGDRVTITCRASQGISSYLAWYQQKPGKAPKLLIYTASTLQSGVPSRFSGSGSGTEFTLTISSLQPEDFATYYCQQLNSYPLTFGGGTKLEIK
B12: 3H9: human anti-TMEFF1 IgG1 antibody; VH SEQ ID NO: 114, VL SEQ ID NO: 117 (antibody, V domains shown)
VH: EVQLVESGGGLVKPGGSLRLSCAASGFVFSYAWMNWVRQAPGKGLEWVGRIKSKTEGGTTDNAAPVKGRFTISREDSKNTLYLQLNSLKIEDTAVYYCTTGRIAAAGFDYWGQGTLVTVSS
VL: DAVVTQESALTTSPGETVTLTCRSSTGTVTTSNYANWVQEKPDHLFTGLIAGTNNRAPGVPARFSGSLIGDKAALTITGAQTEDEAIYFCALWYSNHWVFGGGTKLTVLG
B13: 11F9: human anti-TMEFF1 IgG1 antibody; VH SEQ ID NO: 71, VL SEQ ID NO: 75 (antibody, V domains shown)
VH: B12 VH with V28T, N35S, E56D, N62Y, E75D, G112A
VL: B12 VL with A74V

System: hTMEFF1-ECD recombinant deletion mutants
Assay: Binding domain determination with hTMEFF1-ECD deletion mutants (Octet)
Parameters: species or system human; key: FS1—follistatin domain 1; FS2—follistatin domain 2
Details: full length TMEFF1 ECD vs ΔFS1, ΔFS2, ΔFS1&FS2
From the text: TMEFF1 recombinant proteins expressing 3 different deletion mutants, AFS1 (AFollistatin Domain 1), AFS2 (AFollistatin Domain 2) or AFS1&FS2 were used to identify binding domains among different antibodes using an Octet Red instrument with Anti-Penta-His (HIS 1K) biosensors. Expression of the 3 deletion mutants was confirmed by WB analysis. 100 ngs of purified TMEFF1 ECD was run along with unpurified supernatant of transfected CHO cells with the different deletion mutants. HIS 1K biosensors were loaded by submerging the biosensors into wells containing 10 ug/ml of full length TMEFF1 or one of 3 different deletion mutants (AFS1, AFS2 or AFS1&FS2) for 60 seconds. Following the loading step, the biosensors were then dipped for 30 seconds in PBS before immersion for 30 seconds in 200 ul of unpurified recombinant antibodies for 30 seconds. The biosensors were then dipped briefly (30 seconds) in PBS to observe any dissociation. Samples were determined to show binding or no binding by comparing to a control well that contained no recombinant antibody. Differential binding to the deletion mutants allowed for determination of binding sites on TMEFF1 recombinant protein. For cases where the antibody bound all 3 recombinant proteins, the binding is outside of the deleted domains. For the case where binding is observed only on full length TMEFF1 and AFS2, the antibody is binding in the ΔFS1 domain.
26 of the identified antibodies were checked for epitope domain binding by Octet™ using the hTMEFF1-ECD recombinant deletion mutants (see Table 7, below).

| Molecule | Binding region (epitope domain binding) |
| --- | --- |
| B1 | FS1 |
| B2 | FS1 |
| B3 | FS1 |
| B4 | FS1 |
| B5 | FS1 |
| B6 | Other |
| B7 | other |
| B8 | other |
| B9 | FS1 |
| B10 | FS1 |
| B11 | FS1 |
| B12 | other |
| B13 | other |

Molecular target: T1, recombinant TMEFF1
Assay: Binding competition binning (Octet)
Details: seven antibodies, 3 bins
Procedure: Binding competition among different antibodies was determined using a real-time, interferometry assay on an Octet Red™ instrument with Protein A-conjugated biosensors. To assess whether two antibodies competed for binding to a recombinant TMEFF1 protein, the assay was performed as follows. Protein A biosensors were first submerged into wells containing 10 ug/mL of individual monoclonal antibodies for 5 minutes. Following the capture step, the biosensors were dipped briefly (15 seconds) into buffer and then any unoccupied sites on the biosensor were saturated by submerging them for 5 minutes into wells containing 100 ug/mL of an irrelevant monoclonal antibody. The Octet biosensors were then dipped briefly (15 seconds) in buffer before immersion for 1 minute into wells containing recombinant TMEFF1. The biosensors were dipped briefly (15 seconds) in buffer before immersion for 1 minute into wells containing a second recombinant antibody.
For the control case where the second antibody was the same as the first, there was no increase in signal, because there was no additional binding to the recombinant target.
For the control case where buffer was used instead of the first antibody, no recombinant target bound the non-quenching antibody on the biosensor and no second antibody bound the biosensor.
Competition binning using Octet™ was done with seven antibodies and 3 separate bins were identified.

| Molecule | Competition binning (epitope bin) |
| --- | --- |
| B6 | bind a region different from FS1 or FS2 and compete with each other |
